The values below come from US20040116336A1 (TAKADA PHARMACEUTICAL, published 2004).

In experiment [1] the target is T1, APJ (orphan G protein-coupled receptor protein).
T1 chain: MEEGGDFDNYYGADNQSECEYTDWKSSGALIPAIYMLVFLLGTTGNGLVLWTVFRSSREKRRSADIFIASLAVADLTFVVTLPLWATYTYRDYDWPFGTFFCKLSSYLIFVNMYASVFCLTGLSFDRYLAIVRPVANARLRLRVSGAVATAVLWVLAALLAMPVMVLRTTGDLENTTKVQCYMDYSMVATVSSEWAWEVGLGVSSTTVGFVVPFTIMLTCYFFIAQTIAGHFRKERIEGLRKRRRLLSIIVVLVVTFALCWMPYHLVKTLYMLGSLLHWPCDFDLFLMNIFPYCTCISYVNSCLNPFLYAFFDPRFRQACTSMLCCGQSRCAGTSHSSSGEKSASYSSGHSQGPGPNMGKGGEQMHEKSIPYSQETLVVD
The experiment in a line: cell-based or functional assay.

Experiment [2] has as its target T1, APJ (orphan G protein-coupled receptor …). The experiment in a line: radioligand competition, compound of Ref. Ex. 2 as labelled ligand, CHO-A10 membrane fraction.
The target is the same in experiment [3]. The experiment in a line: radioligand competition, 125I-labelled compound of Ref. Ex. 1 (100 pM), CHO-A10 membrane fraction. As for the experimental part: This product was mixed with an equal volume of an assay buffer (50 mM Tris-HCl/pH 7.5, 5 mM EDTA, 0.5 mM PMSF, 20 μg/ml leupeptin, 0.1 μg/ml pepstatin A, 4 μg/ml E-64 (Peptide Research Laboratory, Co.), 0.1% bovine serum albumin) and stored at −30° C. before use.
CHO-A10 cells were cultured, recovered with PBS containing 5 mM EDTA from a culture vessel, and suspended in the above-mentioned assay buffer not containing bovine serum albumin. The cells were homogenized 3 times at 12,000 rpm for 15 seconds by a Polytron homogenizer (manufactured by Kinematica Inc.) and then centrifuged (1000×g, 4° C., 10 minutes), and the supernatant was recovered. The precipitates were subjected again to the same procedure as above, and the respective supernatants were combined and centrifuged at 100,000×g, 4° C. for 1 hour, to recover precipitates (membrane fraction). The membrane fraction was suspended again in a small amount of the buffer, homogenized with a Teflon homogenizer and stored at −80° C. before use.
Binding assay was carried out under the following conditions. […] containing 0.25 μg of the membrane fraction, the ¹²⁵I-labeled compound at a final concentration of 100 pM, a test sample and an assay buffer were put onto each well of a 96-well polypropylene plate, and incubated at room temperature for 1.5 hours. Measurement of non-specific binding was carried out using a well containing 1 μM unlabeled compound in place of the test sample. After the incubation was finished, a cell harvester (Packard) adapted to 96 wells and a filter unit (GF/C, Packard) were used for separation thereby capturing the membrane fraction on the filter. After the filter was sufficiently dried, Microcinti 0 (Packard) was added thereto, and using Top Count (Packard), the amount of the labeled material captured together with the membrane fraction on the filter was measured.
On the technique in general: In a radioligand displacement assay an active substance lowers the binding of a labelled ligand.

Experiment [4] shares this target. The experiment in a line: cell-based or functional assay.
The target is the same in experiment [5]. The experiment in a line: radioligand competition, 125I-labelled compound of Ref. Ex. 1 (100 pM), CHO-A10 membrane fraction.
For experiment [6] the target is unchanged. The experiment in a line: radioligand competition, compound of Ref. Ex. 2 as labelled ligand, CHO-A10 membrane fraction.
For experiment [7] the target is unchanged. The experiment in a line: cell-based or functional assay.
Experiment [8] shares this target. The experiment in a line: radioligand competition, compound of Ref. Ex. 2 as labelled ligand, CHO-A10 membrane fraction.

Like-named read-outs stand apart in the source and are kept apart here. Starred links: 1 amine or outer side, 2 acyl side, 3 side chain; linkers in the order of their positions; H or OH if unused. Non-standard residues stand in square brackets, D forms with d. No end group written: not given here. Pyn = 1-pyrenylalanine, O=C([C@H](Cc1ccc2ccc3cccc4ccc1c2c34)N[*:1])[*:2]; Phe(4-Cl) = N[C@@H](Cc1ccc(Cl)cc1)C(=O)O; Lys(Me2) = CN(C)CCCC[C@H](N)C(=O)O; Cha = N[C@@H](CC1CCCCC1)C(=O)O

B1: Arg-Arg-Ala-Arg-Pro-Arg-Leu-Ser-His-Lys-Gly-Pro-Met-Pro-Phe (peptide)
peptide: RRARPRLSHKGPMPF
notes: also called Compound in Ex. 25
For B1, the “EC50, inhibition of forskolin-stimulated cAMP production (CHO-A10 clone 6 cells)” value (“EC50, inhibition” below) in experiment [1] amounted to 0.25 nM. The IC50 – broadly, the concentration needed to halve the response being measured – in experiment [2] stood at 0.067 nM; in experiment [3], 34 nM.

B2: Arg-Pro-Arg-Leu-Ser-Ala-Arg-Gly-Pro-Met-Pro-Phe (peptide)
peptide: RPRLSARGPMPF
notes: also called Compound in Ex. 24
Take B2: in experiment [1], the “EC50, inhibition” value worked out at 0.25 nM. Besides, the 50% inhibitory concentration (IC50) in experiment [2] turned out to be 0.057 nM; in experiment [3], 27 nM.

B3: Arg-Arg-Gln-Arg-Pro-Arg-Leu-Ser-Ala-Arg-Gly-Pro (peptide)
peptide: RRQRPRLSARGP
For B3, the “EC50, inhibition” value in experiment [1] was found to be 0.26 nM.

B4: Arg-Arg-Lys-Arg-Pro-Arg-Leu-Ser-His-Lys-Gly-Pro-Met-Pro-Phe (peptide)
peptide: RRKRPRLSHKGPMPF
notes: also called Compound in Ex. 23
For B4, in experiment [1], the “EC50, inhibition” value was 0.31 nM. Moreover, the results for the IC50 in experiment [2] and in experiment [3] were 0.09 nM and 9.2 nM, respectively.

B5: Arg-Pro-Arg-Leu-Phe-Ala-Arg-Gly-Pro-Met-Phe (peptide)
peptide: RPRLFARGPMF
notes: also called Compound in Ex. 47
Consider B5, for which the “EC50, inhibition” value in experiment [1] is 0.36 nM. Moreover, the half-inhibitory concentration (IC50) in experiment [2] worked out at 1.8 nM.

B6: Arg-Arg-Gln-Arg-Pro-Arg-Leu-Ser-Ala-Arg-Gly-Pro-Met (peptide)
peptide: RRQRPRLSARGPM
notes: also called Compound in Ex. 18
As to B6, in experiment [1], the “EC50, inhibition” value was 0.18 nM. The IC50 amounted to 0.023 nM in experiment [2] and 2.5 nM in experiment [3].

B7: Arg-Pro-Arg-Leu-Ser-Ala-Lys(Me)2-Gly-Pro-Met-Pro-Phe (peptide)
peptide: RPRLSA[Lys(Me2)]GPMPF
notes: also called Compound in Ex. 64
As for B7, in experiment [4], the “EC50, inhibition” value came out at 0.38 nM. Also, in experiment [5], the IC50 was 0.38 nM.

B8: Arg-Arg-Gln-Arg-Pro-Arg-Leu-Ser-Ala-Arg-Gly-Gly-Cha (peptide)
peptide: RRQRPRLSARGG[Cha]
modifications: not fully specified; printed as Arg-Arg-Gln-Arg-Pro-Arg-Leu-Ser-Ala-Arg-Gly-Gly-Cha
notes: also called Compound in Ex. 62
Regarding B8, in experiment [4], the “EC50, inhibition” value was found to be 0.23 nM. Moreover, the IC50 in experiment [6] amounted to 0.14 nM; in experiment [5], 0.23 nM.

B9: Arg-Arg-Phe-Arg-Pro-Arg-Leu-Ser-His-Lys-Gly-Pro-Met-Pro-Phe (peptide)
peptide: RRFRPRLSHKGPMPF
notes: also called Compound in Ex. 33
Regarding B9, the “EC50, inhibition” value in experiment [1] was determined as 1.1 nM. Also, the IC50 in experiment [2] came to 0.37 nM.

B10: Arg-Arg-Arg-Arg-Pro-Arg-Leu-Ser-His-Lys-Gly-Pro-Met-Pro-Phe (peptide)
peptide: RRRRPRLSHKGPMPF
As to B10, in experiment [1], the “EC50, inhibition” value turned out to be 0.32 nM.

B11: Arg-Pro-Arg-Leu-Ser-Ala-Arg-Gly-Pro-Cha-Pyn (peptide)
peptide: RPRLSARGP[Cha][Pyn]
modifications: not fully specified; printed as Arg-Pro-Arg-Leu-Ser-Ala-Arg-Gly-Pro-Cha-Pyn
notes: also called Compound in Ex. 60
Take B11: the “EC50, inhibition” value in experiment [4] came out at 1.1 nM. Also, the figures for the concentration for half-maximal inhibition (IC50) in experiment [6] and in experiment [5] were 0.8 nM and 1.1 nM, respectively.

B12: Arg-Pro-Arg-Leu-Ser-Ala-Arg-Gly-Pro-Cha-Pro-Pyn (peptide)
peptide: RPRLSARGP[Cha]P[Pyn]
modifications: not fully specified; printed as Arg-Pro-Arg-Leu-Ser-Ala-Arg-Gly-Pro-Cha-Pro-Pyn
notes: also called Compound in Ex. 61
B12: in experiment [4], the “EC50, inhibition” value amounted to 2.2 nM. In addition, the IC50 in experiment [6] turned out to be 0.56 nM; in experiment [5], 2.2 nM.

B13: Arg-Pro-Arg-Leu-Ser-His-Lys-Gly-Pro-Met-Pro-Phe(Cl) (peptide)
peptide: RPRLSHKGPMP[Phe(4-Cl)]
notes: also called Compound in Ex. 8
For the molecule B13, the “EC50, inhibition” value in experiment [7] was determined as 0.34 nM. For the same molecule, the IC50 amounted to 0.039 nM in experiment [8] and 13 nM in experiment [3].

B14: Arg-Pro-Lys(Me)2-Leu-Ser-Ala-Arg-Gly-Pro-Met-Pro-Phe (peptide)
peptide: RP[Lys(Me2)]LSARGPMPF
notes: also called Compound in Ex. 63
Turning to B14, the “EC50, inhibition” value in experiment [4] stood at 0.33 nM. Also, the IC50 in experiment [6] came out at 0.074 nM; in experiment [5] it was 0.33 nM.

B15: Arg-Pro-Arg-Leu-Phe-Ala-Arg-Gly-Pro-Met-Pro-Phe (peptide)
peptide: RPRLFARGPMPF
notes: also called Compound in Ex. 31
In the case of B15, in experiment [1], the “EC50, inhibition” value was found to be 0.14 nM. The molecule further gave an IC50 in experiment [2] of 0.27 nM.

B16: Arg-Pro-Arg-Leu-Ser-Ala-Arg-Gly-Pro-Met (peptide)
peptide: RPRLSARGPM
notes: also called Compound in Ex. 27
In the case of B16, the concentration for half-maximal inhibition (IC50) in experiment [2] turned out to be 0.11 nM.

B17: Arg-Arg-Gln-Arg-Pro-Arg-Leu-Ser-Ala-Arg-Gly-Pro-Met-Pro-Phe (peptide)
peptide: RRQRPRLSARGPMPF
notes: also called Compound in Ex. 17
B17 gave a 50% inhibitory concentration (IC50) in experiment [2] of 0.036 nM.
